Measurements from patent publication US20170016915A1, “SCREENING TARGETS AND COMPOSITIONS AND METHODS FOR TREATMENT OF CILIOPATHY DISORDERS” (Duke University, priority 2014, published 2017).
Blank lines part the entries; values can stand above or below the molecule they belong to. Where a SMILES comes first, the peptide text is derived from it. The star is where a group is joined. Cbz = O=C(OCc1ccccc1)*

B1: GFP-tagged regulatory proteasome non-ATPase subunit 13 (RPN13) (other, UniProt Q16186 1-407, looked up)
chain: MTTSGALFPSLVPGSRGASNKYLVEFRAGKMSLKGTTVTPDKRKGLVYIQQTDDSLIHFCWKDRTSGNVEDDLIIFPDDCEFKRVPQCPSGRVYVLKFKAGSKRLFFWMQEPKTDQDEEHCRKVNEYLNNPPMPGALGASGSSGHELSALGGEGGLQSLLGNMSHSQLMQLIGPAGLGGLGGLGALTGPGLASLLGSSGPPGSSSSSSSRSQSAAVTPSSTTSSTRATPAPSAPAAASATSPSPAPSSGNGASTAASPTQPIQLSDLQSILATMNVPAGPAGGQQVDLASVLTPEIMAPILANADVQERLLPYLPSGESLPQTADEIQNTLTSPQFQQALGMFSAALASGQLGPLMCQFGLPAEAVEAANKGDVEAFAKAMQNNAKPEQKEGDTKDKKDEEEDMSLD
notes: Transfected construct; not shown: GFP tag
B2: BBS5 (other, UniProt Q8N3I7 1-341, looked up)
chain: MSVLDALWEDRDVRFDLSAQQMKTRPGEVLIDCLDSIEDTKGNNGDRGRLLVTNLRILWHSLALSRVNVSVGYNCILNITTRTANSKLRGQTEALYILTKCNSTRFEFIFTNLVPGSPRLFTSVMAVHRAYETSKMYRDFKLRSALIQNKQLRLLPQEHVYDKINGVWNLSSDQGNLGTFFITNVRIVWHANMNDSFNVSIPYLQIRSIKIRDSKFGLALVIESSQQSGGYVLGFKIDPVEKLQESVKEINSLHKVYSASPIFGVDYEMEEKPQPLEALTVEQIQDDVEIDSDGHTDAFVAYFADGNKQQDREPVFSEELGLAIEKLKDGFTLQGLWEVMS
notes: Tested in the same co-IP series as the Myc- or HA-tagged BBS proteins
B4: GFP-tagged regulatory proteasome non-ATPase subunit 10 (RPN10) (other, UniProt P55036 1-377, looked up)
chain: MVLESTMVCVDNSEYMRNGDFLPTRLQAQQDAVNIVCHSKTRSNPENNVGLITLANDCEVLTTLTPDTGRILSKLHTVQPKGKITFCTGIRVAHLALKHRQGKNHKMRIIAFVGSPVEDNEKDLVKLAKRLKKEKVNVDIINFGEEEVNTEKLTAFVNTLNGKDGTGSHLVTVPPGPSLADALISSPILAGEGGAMLGLGASDFEFGVDPSADPELALALRVSMEEQRQRQEEEARRAAAASAAEAGIATTGTEDSDDALLKMTISQQEFGRTGLPDLSSMTEEEQIAYAMQMSLQGAEFGQAESADIDASSAMDTSEPAKEEDDYDVMQDPEFLQSVLENLPGVDPNNEAIRNAMGSLASQATKDGKKDKKEEDKK
notes: Transfected expression construct; also called GFP-tagged RPN10; not shown: GFP tag

How the values were obtained:
[1] = system: bbs4, bbs1 and ofd1 morphant zebrafish embryos; test: Convergent extension (CE) and somite defects in morphant zebrafish embryos, coinjection; type: in vivo; conditions: coinjection with bbs4 morpholino
Procedure: (§1) Morpholinos against bbs1 ([NT] ID NO: 13), bbs4 ([NT] ID NO: 14), and ofd1 ([NT] ID NO: 15) were purchased from Gene Tools, LLC. Human RPN10, RPN13, and RPT6 mRNA were in vitro transcribed with a mMESSAGE mMACHINE SP6 Kit (Ambion). SFN was dissolved in DMSO (Sigma-Aldrich) at a stock concentration of 1 M and further diluted in water to 10 mM. The morpholino and mRNA or SFN were mixed, and a volume of 0.5 nl was microinjected.

[2] = system: her4 expression (Notch target) in bbs4 morphant zebrafish embryos; test: Whole-mount RNA in situ hybridization of her4 in morphant zebrafish; type: in vivo; conditions: bbs4 morphants, coinjection, 4.5 dpf
Procedure: as §1, with “microinjected. Zebrafish embryos were fixed overnight in 4% PFA at 4° C. Residual pigment was removed by bleaching with 3% H2O2/0.5% KOH.” for “microinjected.”

[3] = system: NICD; test: Immunoblot of NICD in BBS4-overexpressing cells treated with proteasome inhibitors; type: cell-based; conditions: MG132 30 μM 5 hours, lactacystin 20 μM 5 hours
Procedure: (§3) Transfected cells and mouse tissues were lysed in modified RIPA buffer [150 mM sodium chloride, 50 mM Tris-HCl, pH7.4, 1% nonidet P-40, 0.1% sodium deoxycholate, 1 mM EDTA] with 1× proteasome inhibitor (Roche) and centrifuged at 4° C. for 15 minutes. […] Total protein in each sample was separated by SDS-PAGE on 4% to 15% Mini-PROTEAN TGX Precast Gel (Bio-Rad) with a Spectra Multicolor Broad Range Protein Ladder (Fermentas) and transferred to an Immun-Blot PVDF Membrane (Bio-Rad). […] Densitometric analysis was performed with Image Lab (Bio-Rad), Quantity One (Bio-Rad), or ImageJ 1.44p (NIH) software.
(§4) Drug treatment was carried out at a final concentration of 10 μM SFN (Sigma-Aldrich) for 6 to 24 hours, 30 μm N-carbobenzoxyl- ? -leucinyl- ? -leucinyl- ? -norleucinal (MG132; Calbiochem) for 5 hours, 20 μM lactacystin (EMD Bioscience) for 5 hours, and 50 ng/ml TNF-α (Sigma-Aldrich) for 12 hours.

[4] = system: JAG1; test: Immunoblot of GFP-JAG1 in BBS4-overexpressing cells treated with proteasome inhibitor; type: cell-based; conditions: proteasome inhibitor 5 hours
Procedure: as §3, §4

[5] = target: T1, BBS10 (UniProt Q8TAM1 1-723, limits assumed); test: co-immunoprecipitation, 1% Triton X-100
T1 construct: Tested in the same co-IP series as the Myc- or HA-tagged BBS proteins
T1 sequence (looked up): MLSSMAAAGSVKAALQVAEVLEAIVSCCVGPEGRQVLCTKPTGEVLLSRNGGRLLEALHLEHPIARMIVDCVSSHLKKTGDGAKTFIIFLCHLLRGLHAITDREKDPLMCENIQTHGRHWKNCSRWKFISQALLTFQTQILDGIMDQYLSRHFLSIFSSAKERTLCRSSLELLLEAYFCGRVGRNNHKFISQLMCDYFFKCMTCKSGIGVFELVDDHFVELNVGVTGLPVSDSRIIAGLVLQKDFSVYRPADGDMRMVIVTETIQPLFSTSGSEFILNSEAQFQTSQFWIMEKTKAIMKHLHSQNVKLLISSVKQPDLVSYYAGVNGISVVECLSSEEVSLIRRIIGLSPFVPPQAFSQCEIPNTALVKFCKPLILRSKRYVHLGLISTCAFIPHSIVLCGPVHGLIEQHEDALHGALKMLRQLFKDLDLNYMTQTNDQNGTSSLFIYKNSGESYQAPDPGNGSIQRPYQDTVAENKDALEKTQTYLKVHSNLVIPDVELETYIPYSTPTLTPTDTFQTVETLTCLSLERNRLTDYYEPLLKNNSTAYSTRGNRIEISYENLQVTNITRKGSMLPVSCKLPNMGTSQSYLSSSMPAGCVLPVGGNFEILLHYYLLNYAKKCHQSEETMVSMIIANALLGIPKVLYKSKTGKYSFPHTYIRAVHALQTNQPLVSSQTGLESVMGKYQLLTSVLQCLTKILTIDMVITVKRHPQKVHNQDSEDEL
Procedure: (§2) First, an unbiased mass spectrometry screen was conducted to identify putative OFD1-interacting proteins. This experiment uncovered a spectrum of proteasomal subunits including regulatory proteasome ATPase subunit 6 (RPT6), a finding confirmed by semiendogenous coimmunoprecipitation (FIG. 4A). […] To test the physiological relevance of a BBS-proteasome interactome, it was determined that BBS1 and RPN10 interacted at endogenous levels in protein lysates isolated from C57BL/6 mouse testes (FIG. 4A). To probe the relevance of these interactions, the question was asked whether loss of OFD1 or BBS4 alters the composition of the proteasome with respect to its subunits. Using a stable cell line expressing tagged regulatory proteasome non-ATPase subunit 11 (RPN11) (37), OFD1 was suppressed, 26S proteasome complexes were purified, and a robust reduction was observed (60%±8%) of 26S-bound regulatory proteasome ATPase subunit 2 (RPT2) in OFD1-depleted cells in comparison with that in control, while total RPT2 protein abundance was not affected by OFD1 depletion (FIG. 4B).

[6] = target: B1; test: co-immunoprecipitation, 1% Triton X-100
Procedure: as §2

[7] = target: T2, GFP-tagged regulatory proteasome ATPase subunit 6 (RPT6) (UniProt P62195 1-406); test: co-immunoprecipitation, 1% Triton X-100
T2 construct: Transfected construct; not shown: GFP tag
Procedure: as §2

[8] = target: B4; test: co-immunoprecipitation, 1% Triton X-100
Procedure: as §2

[9] = target: B2; test: co-immunoprecipitation, 1% Triton X-100
Procedure: as §2

T2 sequence (P62195 whole entry): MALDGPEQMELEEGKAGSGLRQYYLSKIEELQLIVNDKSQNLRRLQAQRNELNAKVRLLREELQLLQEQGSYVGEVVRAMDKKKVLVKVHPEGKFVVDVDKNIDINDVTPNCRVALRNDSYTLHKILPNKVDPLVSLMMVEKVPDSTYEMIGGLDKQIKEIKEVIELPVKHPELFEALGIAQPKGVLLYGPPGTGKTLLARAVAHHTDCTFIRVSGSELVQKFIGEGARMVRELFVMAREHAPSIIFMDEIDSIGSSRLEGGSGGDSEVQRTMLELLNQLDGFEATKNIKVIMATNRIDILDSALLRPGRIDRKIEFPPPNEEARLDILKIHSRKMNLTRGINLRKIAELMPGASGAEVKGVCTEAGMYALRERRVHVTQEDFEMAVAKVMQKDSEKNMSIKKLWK

Molecule: CC1(O)CCOC(=O)C1 (racemic) [MVA, (±)-β-hydroxy-β-methyl-δ-valerolactone]
bbs4 morphant zebrafish with CE defects ([1]; 9±1 ss, 47.8% without MVA): 11.4% | bbs4 morphants with CE and somitic defects ([1]; blind scoring at 9±1 ss): rescues | ectopic expression of her4 in neural structures [2]: reduced

Molecule: CC(C)C[C@@H](C=O)NC(=O)[C@H](CC(C)C)NC(=O)[C@H](CC(C)C)NC(=O)OCc1ccccc1 [MG132] (Cbz-Leu-Leu-Leu-aldehyde)
NICD protein levels, of basal levels [3]: 93% | JAG1 levels, of basal levels [4]: 99%±38%

Molecule: CC(=O)N[C@@H](CSC(=O)[C@]1([C@@H](O)C(C)C)NC(=O)[C@H](C)[C@@H]1O)C(=O)O [lactacystin]
NICD protein levels, of basal levels [3]: 138%

Molecule: B1
binding result [5]: no binding

Molecule: B2
binding result [6]: no binding | binding result [7]: no binding | binding result [8]: no binding

binding result [9]: no binding | binding result [5]: no binding
B3: GFP-tagged PSMB1 (proteasome subunit beta type 1, subunit in the 20S particle) (other, UniProt P20618 1-241, looked up)
chain: MLSSTAMYSAPGRDLGMEPHRAAGPLQLRFSPYVFNGGTILAIAGEDFAIVASDTRLSEGFSIHTRDSPKCYKLTDKTVIGCSGFHGDCLTLTKIIEARLKMYKHSNNKAMTTGAIAAMLSTILYSRRFFPYYVYNIIGGLDEEGKGAVYSFDPVGSYQRDSFKAGGSASAMLQPLLDNQVGFKNMQNVEHVPLSLDRAMRLVKDVFISAAERDVYTGDALRICIVTKEGIREETVSLRKD
notes: as for B1

Molecule: B4
binding result [5]: no binding
